Values of other authors as cited in paper PMC5340040 (BMC Biochemistry, 2017).

Test system: actin
Conditions: ref [10]
Text: Actin is a negatively charged structural protein and the most abundant protein in the eukaryotic cells. Actin, released from dead cells, is also present in the saliva. Actin has important roles in cytoskeleton formation, cell division, motility, adhesion, signaling and more. Actin exists in either monomer globular (G) or polymer filament (F) form, which are interconvertible into each other.

B1: eEF1A: eukaryotic elongation factor 1 alpha (protein, UniProt P02994 2-458, looked up)
Elongation factor 1-alpha: GKEKSHINVVVIGHVDSGKSTTTGHLIYKCGGIDKRTIEKFEKEAAELGKGSFKYAWVLDKLKAERERGITIDIALWKFETPKYQVTVIDAPGHRDFIKNMITGTSQADCAILIIAGGVGEFEAGISKDGQTREHALLAFTLGVRQLIVAVNKMDSVKWDESRFQEIVKETSNFIKKVGYNPKTVPFVPISGWNGDNMIEATTNAPWYKGWEKETKAGVVKGKTLLEAIDAIEQPSRPTDKPLRLPLQDVYKIGGIGTVPVGRVETGVIKPGMVVTFAPAGVTTEVKSVEMHHEQLEQGVPGDNVGFNVKNVSVKEIRRGNVCGDAKNDPPKGCASFNATVIVLNHPGQISAGYSPVLDCHTAHIACRFDELLEKNDRRSGKKLEDHPKFLKSGDAALVKFVPSKPMCVEAFSEYPPLGRFAVRDMRQTVAVGVIKSVDKTEKAAKVTKAAQKAAKK
In the case of B1, the “polymerization and bundling of actin, eEF1A” value is listed as “polymerize G-actin to F actin and bundle F-actin into actin bundles”.
